Laboratory results published in patent publication US20230212319A1, “NOVEL ANTIGEN BINDING DOMAINS AND SYNTHETIC ANTIGEN RECEPTORS INCORPORATING THE SAME” (University of Southern California, priority 2020, published 2023).

B1: 22064 (protein)
chain: MALPVTALLLPLALLLHAARPQVQLVESGGGLVQPGGSLRLSCAASGFTFTNHAMSWVRQAPGKGLELVSSISGNGRTTYYADSVKGRFTISRDISKNTLDLQMNSLRAEDTAVYYCAKDGGETLVDSRGQGTLVTVSSLEGGGGSGGGGSGGGGSVEDLKNVFPPEVAVFEPSKAEIAHTQKATLVCLATGFYPDHVELSWWVNGKEVHSGVCTDPQPLKEQPALNDSRYCLSSRLRVSATFWQNPRNHFRCQVQFYGLSENDEWTQDRAKPVTQIVSAEAWGRADCGITSASYHQGVLSATILYEILLGKATLYAVLVSALVLMAMVKRKDSRGRAKRSGSGATNFSLLKQAGDVEENPGPTSMDWIWRILFLVGAATGAHSFEEVQLLESGGGLVQPGGSLRLSCAASGFTFSSYAMSWVRQAPGKGLEWVSSISGSGDYIYYADSVKGRFTISRDISKNTLYLQMNSLRAEDTAVYYCAKEGTGANSSLADYRGQGTLVTVSSTRIQNPDPAVYQLRDSKSSDKSVCLFTDFDSQTNVSQSKDSDVYITDKCVLDMRSMDFKSNSAVAWSNKSDFACANAFNNSIIPEDTFFPSPESSCDVKLVEKSFETDTNLNFQNLSVIGFRILLLKVAGFNLLMTLRLWSSRAKRSGSGVKQTLNFDLLKLAGDVESNPGPSRGHMTEYKPTVRLATRDDVPRAVRTLAAAFADYPATRHTVDPDRHIERVTELQELFLTRVGLDIGKVWVADDGAAVAVWTTPESVEAGAVFAEIGPRMAELSGSRLAAQQQMEGLLAPHRPKEPAWFLATVGVSPDHQGKGLGSAVVLPGVEAAERAGVPAFLETSAPRNLPFYERLGFTVTADVEVPEGPRTWCMTRKPGA
B2: 22063 (protein)
chain: MALPVTALLLPLALLLHAARPQVQLVESGGGLVQPGGSLRLSCAASGFTFTNHAMSWVRQAPGKGLELVSSISGNGRTTYYADSVKGRFTISRDISKNTLDLQMNSLRAEDTAVYYCAKDGGETLVDSRGQGTLVTVSSLEAAAKEDLKNVFPPEVAVFEPSEAEISHTQKATLVCLATGFYPDHVELSWWVNGKEVHSGVCTDPQPLKEQPALNDSRYCLSSRLRVSATFWQNPRNHFRCQVQFYGLSENDEWTQDRAKPVTQIVSAEAWGRADCGFTSESYQQGVLSATILYEILLGKATLYAVLVSALVLMAMVKRKDSRGRAKRSGSGATNFSLLKQAGDVEENPGPTSMDWIWRILFLVGAATGAHSFEEVQLLESGGGLVQPGGSLRLSCAASGFTFSSYAMSWVRQAPGKGLEWVSSISGSGDYIYYADSVKGRFTISRDISKNTLYLQMNSLRAEDTAVYYCAKEGTGANSSLADYRGQGTLVTVSSTRIQNPDPAVYQLRDSKSSDKSVCLFTDFDSQTNVSQSKDSDVYITDKCVLDMRSMDFKSNSAVAWSNKSDFACANAFNNSIIPEDTFFPSPESSCDVKLVEKSFETDTNLNFQNLSVIGFRILLLKVAGFNLLMTLRLWSSRAKRSGSGVKQTLNFDLLKLAGDVESNPGPSRGHMTEYKPTVRLATRDDVPRAVRTLAAAFADYPATRHTVDPDRHIERVTELQELFLTRVGLDIGKVWVADDGAAVAVWTTPESVEAGAVFAEIGPRMAELSGSRLAAQQQMEGLLAPHRPKEPAWFLATVGVSPDHQGKGLGSAVVLPGVEAAERAGVPAFLETSAPRNLPFYERLGFTVTADVEVPEGPRTWCMTRKPGA
B3: 22075 (protein)
chain: MALPVTALLLPLALLLHAARPQVQLVESGGGLVQPGGSLRLSCAASGFTFTNHAMSWVRQAPGKGLELVSSISGNGRTTYYADSVKGRFTISRDISKNTLDLQMNSLRAEDTAVYYCAKDGGETLVDSRGQGTLVTVSSLEGQPKANPTVTLFPPSSEELQANKATLVCLISDFYPGAVTVAWKADGSPVKAGVETTKPSKQSNNKYAASSYLSLTPEQWKSHRSYSCQVTHEGSTVEKTVAPTECSGRADCGFTSESYQQGVLSATILYEILLGKATLYAVLVSALVLMAMVKRKDSRGRAKRSGSGATNFSLLKQAGDVEENPGPTSMDWIWRILFLVGAATGAHSFEEVQLLESGGGLVQPGGSLRLSCAASGFTFSSYAMSWVRQAPGKGLEWVSSISGSGDYIYYADSVKGRFTISRDISKNTLYLQMNSLRAEDTAVYYCAKEGTGANSSLADYRGQGTLVTVSSTRIQNPDPAVYQLRDSKSSDKSVCLFTDFDSQTNVSQSKDSDVYITDKCVLDMRSMDFKSNSAVAWSNKSDFACANAFNNSIIPEDTFFPSPESSCDVKLVEKSFETDTNLNFQNLSVIGFRILLLKVAGFNLLMTLRLWSSRAKRSGSGVKQTLNFDLLKLAGDVESNPGPSRGHMTEYKPTVRLATRDDVPRAVRTLAAAFADYPATRHTVDPDRHIERVTELQELFLTRVGLDIGKVWVADDGAAVAVWTTPESVEAGAVFAEIGPRMAELSGSRLAAQQQMEGLLAPHRPKEPAWFLATVGVSPDHQGKGLGSAVVLPGVEAAERAGVPAFLETSAPRNLPFYERLGFTVTADVEVPEGPRTWCMTRKPGA
B4: 21990 (protein)
chain: MALPVTALLLPLALLLHAARPQVQLVESGGGLVQPGGSLRLSCAASGFTFTNHAMSWVRQAPGKGLELVSSISGNGRTTYYADSVKGRFTISRDISKNTLDLQMNSLRAEDTAVYYCAKDGGETLVDSRGQGTLVTVSSLEDLKNVFPPEVAVFEPSEAEISHTQKATLVCLATGFYPDHVELSWWVNGKEVHSGVCTDPQPLKEQPALNDSRYCLSSRLRVSATFWQNPRNHFRCQVQFYGLSENDEWTQDRAKPVTQIVSAEAWGRADCGFTSESYQQGVLSATILYEILLGKATLYAVLVSALVLMAMVKRKDSRGRAKRSGSGATNFSLLKQAGDVEENPGPTSMDWIWRILFLVGAATGAHSFEVQLLESGGGLIQPGGSLRLSCAASGFTFSSHAMTWVRQAPGKGLEWVSAISGSGDYTHYADSVKGRFTISRDNSKNTVYLQMNSLRAEDSAVYYCAKDEDGGSLLGHRGQGTLVTVSSTRIQNPDPAVYQLRDSKSSDKSVCLFTDFDSQTNVSQSKDSDVYITDKCVLDMRSMDFKSNSAVAWSNKSDFACANAFNNSIIPEDTFFPSPESSCDVKLVEKSFETDTNLNFQNLSVIGFRILLLKVAGFNLLMTLRLWSSRAKRSGSGVKQTLNFDLLKLAGDVESNPGPSRGHMTEYKPTVRLATRDDVPRAVRTLAAAFADYPATRHTVDPDRHIERVTELQELFLTRVGLDIGKVWVADDGAAVAVWTTPESVEAGAVFAEIGPRMAELSGSRLAAQQQMEGLLAPHRPKEPAWFLATVGVSPDHQGKGLGSAVVLPGVEAAERAGVPAFLETSAPRNLPFYERLGFTVTADVEVPEGPRTWCMTRKPGA
B5: 22098 (protein)
chain: MALPVTALLLPLALLLHAARPQVQLVESGGGLVQPGGSLRLSCAASGFTFTNHAMSWVRQAPGKGLELVSSISGNGRTTYYADSVKGRFTISRDISKNTLDLQMNSLRAEDTAVYYCAKDGGETLVDSRGQGTLVTVSSLEGQPKANPTVTLFPPSSEELQANKATLVCLISDFYPGAVTVAWKADGSPVKAGVETTKPSKQSNNKYAASSYLSLTPEQWKSHRSYSCQVTHEGSTVEKTVAPTECSPIKTDVITMDPKDNCSKDANDTLLLQLTNTSAYYMYLLLLLKSVVYFAIITCCLLRRTAFCCNGEKSRAKRSGSGATNFSLLKQAGDVEENPGPTSMDWIWRILFLVGAATGAHSFEEVQLLESGGGLVQPGGSLRLSCAASGFTFSSYAMSWVRQAPGKGLEWVSSISGSGDYIYYADSVKGRFTISRDISKNTLYLQMNSLRAEDTAVYYCAKEGTGANSSLADYRGQGTLVTVSSTRASTKGPSVFPLAPSSKSTSGGTAALGCLVKDYFPEPVTVSWNSGALTSGVHTFPAVLQSSGLYSLSSVVTVPSSSLGTQTYICNVNHKPSNTKVDKRVEPKSCEVKTDSTDHVKPKETENTKQPSKSCHKPKAIVHTEKVNMMSLTVLGLRMLFAKTVAVNFLLTAKLFFLRAKRSGSGVKQTLNFDLLKLAGDVESNPGPSRGHMTEYKPTVRLATRDDVPRAVRTLAAAFADYPATRHTVDPDRHIERVTELQELFLTRVGLDIGKVWVADDGAAVAVWTTPESVEAGAVFAEIGPRMAELSGSRLAAQQQMEGLLAPHRPKEPAWFLATVGVSPDHQGKGLGSAVVLPGVEAAERAGVPAFLETSAPRNLPFYERLGFTVTADVEVPEGPRTWCMTRKPGA

system: L363 cells; assay: JNG assay, co-culture with L363 cells; format: cell-based; details: co-culture with L363
Method: Cellular supernatant is collected and assayed for the induction of cytokines (e.g., IL2).
JNG (Jurkat cells expressing EGFP under an NFAT promoter) were infected with lentiviral vectors encoding different single chain and multi-chain SARs by spinfection in the presence of 8 µg/ml of Polybrene® (Sigma, Catalog no. H9268). The Jurkat-NFAT-GFP cells are engineered in such a way that the IL-2 promoter, which carries NFAT binding sites, is cloned upstream of the GFP gene. These cells have been used to study signaling via TCR and CAR. The different SARs were stably expressed in Jurkat NFAT-GFP cells by lentiviral mediated gene transfer, followed by selection with puromycin or blasticidin. No drug selection was used in case the construct lacked an antibiotic resistance gene. The SAR-expressing Jurkat-NFAT-GFP cells were cocultured with the target cells at E:T ratio of approximately 1:2 for approximately 4 hours to 18 hours. When the interaction between SIRs and their target antigen results in activation of the NFAT pathway, GFP expression is induced. […] GFP expression was monitored by FACS analysis. The Jurkat-NFAT-GFP (parental) cells were used as control. The structure of different constructs can be determined based on their names. […] The sequence of the other constructs in the table can be similarly determined from their names and by referring to the different Tables of this disclosure that provide the names and SEQ ID NO of the different modules. Alternatively, the composition and modular architecture of the different SAR constructs can be determined from their sequences by bioinformatics tools, including using nucleic acid and amino acids homology searches. A SAR is considered positive in the assay in case the SAR expressing Jurkat-NFAT-GFP cells show greater % GFP positive cells when cultured with the target cell line as compared to parental Jurkat-NFAT-GFP cells. […] In general, the number +/-, +, 2+, 3+, 4+, 5+ refer to approximately 5%, 10%, 20%, 30%, 40% and 50% GFP positive cells. The % of GFP induction in the above assay is dependent not only the relative strength of the SAR but also, among other factors, on the relative level of expression of the SAR in the JNG cells and the relative level of expression of the target antigen in the target cell line. To control for the difference in gene transduction efficiency of the different SAR constructs, the experiment was conducted with JNG cells transduced with SAR constructs co-expressing a drug resistance gene (e.g., puromycin or PAC) followed by drug selection to generate a stable population of SAR-expressing cells. It is to be noted that the drug resistance gene (e.g., PAC) in the SAR constructs is optional and in vivo studies were conducted with SAR constructs lacking the PAC gene.

Molecule	NFAT-GFP ASSAY: L363
B1	L363 (+/-) (refer to approximately 5%, 10%, 20%, 30%, 40% and 50% GFP positive cells)
B2	L363 (+/-) (refer to approximately 5%, 10%, 20%, 30%, 40% and 50% GFP positive cells)
B3	+/- (refer to approximately 5%, 10%, 20%, 30%, 40% and 50% GFP positive cells)
B4	+ (refer to approximately 5%, 10%, 20%, 30%, 40% and 50% GFP positive cells)
B5	L363 (4+) (refer to approximately 5%, 10%, 20%, 30%, 40% and 50% GFP positive cells)
